# Reference: US20230243070A1 (Molecular Partners, published 2023)
# Key:
# [1] = biological target: T1, NYESOpMHC on T2 cells pulsed with NY-ESO-1-9V (157-165) peptide
# [2] = biological target: T2, NYESOAApMHC (HLA-A*0201:NYESO1-9VAA), biotinylated recombinant complex (human); experiment: SPR (ProteOn), biotinylated pMHC on NLC chip
# [3] = biological target: T3, EBNApMHC (HLA-A*0201:EBNA-1), biotinylated recombinant complex (human; Epstein Barr virus); experiment: SPR (ProteOn), biotinylated pMHC on NLC chip
# [4] = biological target: T4, NYESOpMHC (HLA-A*0201:NYESO1-9V), biotinylated recombinant complex (human); experiment: SPR (ProteOn), biotinylated pMHC on NLC chip, PBS with Tween
# T4 construct: also called NY-ESO-1 peptide-MHC complex
# [5] = biological target: T1, NYESOpMHC on T2 cells pulsed with …; remark: listed apart in the source
# [6] = biological target: T5, HBVc18pMHC, biotinylated recombinant complex (HLA-A*0201: HBVc18) (human; Hepatitis B virus); experiment: SPR (ProteOn)
# T5 construct: also called HBVc18 peptide-MHC complex
# [7] = biological target: T2, NYESOAApMHC (HLA-A*0201:NYESO1-9VAA), …; experiment: SPR (ProteOn), biotinylated NYESOAApMHC on the chip
# [8] = biological target: T3, EBNApMHC (HLA-A*0201:EBNA-1), …
# [9] = biological target: T4, NYESOpMHC (HLA-A*0201:NYESO1-9V), …
# [10] = biological target: T2, NYESOAApMHC (HLA-A*0201:NYESO1-9VAA), …
# [11] = biological target: T3, EBNApMHC (HLA-A*0201:EBNA-1), …; experiment: SPR (ProteOn), biotinylated EBNApMHC on the chip
# [12] = biological target: T6, MAGEA3pMHC, biotinylated recombinant complex (HLA-A*0101, MAGE-A3 peptide) (human); experiment: ribosome display selection, crude extract HTRF
# T6 construct: also called MAGE-A3 peptide-MHC complex
binder,measurement,setting,value
DARPin® protein #20 (designed binder) MRGSHHHHHHGSDLGKKLLQAARAGQLDEVRELLKAGADVNAKDQSGATPLHLAAFRGHLEIVEVLLKAGADVNAKDAAGYTPLHIAAVYGHLEIVEVLLKAGADVNAKDSAGETPLHLAAYAGHLEIVEVLLKAGADVNAQDKSGKTPADLAARAGHQDIAEVLQKAA,EC50,[1],20.6 nM
same,binding result,[2],no binding
same,binding result,[3],"no binding (tested: 3.7 nM to 300 nM, or 250 nM single trace)"
same,Kd,[4],5.79 nM
DARPin® protein #22 (designed binder) MRGSHHHHHHGSDLGKKLLQAARAGQLDEVRELLKAGADVNAKDAIGFTPLHLAAFSGHLEIVEVLLKAGADVNAKDVAGYTPLHVAALYGHLVIVEVLLKAGADVNAKDKAGETPLHLAAFAGHLEIVEVLLKAGADVNAQDKSGKTPADLAARAGHQDIAEVLQKAA,EC50 (read off the curve),[5],~3 nM
same,EC50,[1],3.7 nM
same,binding result,[2],no binding
same,binding result,[3],"no binding (tested: 3.7 nM to 300 nM, or 250 nM single trace)"
same,Kd,[4],0.0685 nM
DARPin® protein comprising SEQ ID NO 222 (linked to a CD3-specific binding agent) (designed binder) GSDLGYKLLTAAIVGQDDEVRILLAAGADVNAKDQSGLTPLHLAAAYGHLEIVEVLLKAGADVNAKDKHGRTPLHLAALEGHLEIVEVLLKAGADVNAQDQFGITPADLAAAVGHEDIAEVLQKAA,Kd,[6],7.15 nM
DARPin® protein comprising SEQ ID NO 227 (linked to a CD3-specific binding agent) (designed binder) GSDLGQKLLTAAIVGQDDEVRILLAAGADVNAKDQSGLTPLHLAAAYGHLEIVEVLLKAGADVNAKDKHGRTPLHLAALEGHLEIVEVLLKAGADVNAQDQFGITPADLAAAVGHEDIAEVLQKAA,Kd,[6],7.1 nM
DARPin® protein #21 (designed binder) MRGSHHHHHHGSDLGKKLLQAARAGQLDEVRELLKAGADVNAKDLIGVTPLHLAAFSGHLEIVEVLLKASADVNAKDVSGRTPLHVAAKHGHLEIVEVLLKAGADVNAKDLIGFTPLHLAAQFGHLEIVEVLLKAGADVNAQDKSGKTPADLAARAGHQDIAEVLQKAA,binding result,[7],no binding
same,KD (fit header over a trace without response),[8],3.05 mM
same,Ka (fit header over a trace without response),[8],2.78e-08 M⁻¹ s⁻¹
same,kd (fit header over a trace without response),[8],8.5e-11 s⁻¹
same,koff,[9],0.000473 s⁻¹
same,kon,[9],549000 M⁻¹ s⁻¹
same,EC50,[1],4.5 nM
same,KD (fit header over a trace without response),[10],0.846 pM
same,Ka (fit header over a trace without response),[10],8.23e+06 M⁻¹ s⁻¹
same,kd (fit header over a trace without response),[10],6.97e-06 s⁻¹
same,Kd,[4],0.861 nM
same,binding result,[11],no binding
DARPin® protein comprising SEQ ID NO 221 (linked to a CD3-specific binding agent) (designed binder) GSDLGQKLLLAAAIGQDDEVRILLAAGADVNAKDESGHTPLHYAAHVGHLEIVEVLLKAGDVNAKDHRGFTPLHVAAQIGHLEIVEVLLKAGADVNAQDNWGITPADLAAWWGHEDIAEVLQKAA,Kd,[6],0.369 nM
DARPin® protein comprising SEQ ID NO 230 (linked to a CD3-specific binding agent) (designed binder) GSDLGKKLLQAARAGQLDEVHELLKAGADVNAKDQHGKTPMHLAAQIGHLEIVEVLLKAGADVNAKDHIGWTPLHLAASVGHLEIVEVLLKAGADVNAKDQEGWTPLHVAAQLGHLEIVEVLLKAGADVNAQDKSGKTPADLAARAGHQDSAEVLQKAA,Kd,[6],9.33 nM
DARPin® protein comprising SEQ ID NO 220 (linked to a CD3-specific binding agent) (designed binder) GSDLGHKLLFAASAGQDDEVRILLAAGADVNAKDESGQTPLHYAAFVGHLEIVEVLLKAGADVNAKDQWGHTPLHVAATFGHLEIVEVLLKAGADVNAQDTWGTTPADLAATFGHEDIAEVLQKAA,Kd,[6],4.65 nM
DARPin® protein comprising SEQ ID NO 224 (linked to a CD3-specific binding agent) (designed binder) GSDLGFKLLEAALEGQDDEVRILLAAGADVNAKDESGQTPLHYAAFVGHLEIVEVLLKAGADVNAKDQWGHTPLHVAATFGHLEIVEVLLKAGADVNAQDTWGTTPADLAATFGHEDIAEVLQKAA,Kd,[6],0.736 nM
DARPin® protein comprising SEQ ID NO 228 (linked to a CD3-specific binding agent) (designed binder) GSDLGWKLLHAATTGQDDEVRILLAAGADVNAKDESGQTPLHYAAFVGHLEIVEVLLKAGADVNAKDQWGHTPLHVAATFGHLEIVEVLLKAGADVNAQDTWGTTPADLAATFGHEDIAEVLQKAA,Kd,[6],4.72 nM
DARPin® protein comprising SEQ ID NO 229 (linked to a CD3-specific binding agent) (designed binder) GSDLGSKLLYAAISGQDDEVRILLAAGADVNAKDESGQTPLHYAAFVGHLEIVEVLLKAGADVNAKDQWGHTPLHVAATFGHLEIVEVLLKAGADVNAQDTWGTTPADLAATFGHEDIAVVLQKAA,Kd,[6],1.03 nM
SEQ ID NO 165 (designed binder) GSDLGEKLLQAALEGQDDEVRELLKAGADVNAKDLVGWTPLHIAAYRGHLEIVEVLLKAGADVNAKDWVGLTPLHLAAIEGHLEIVEVLLKAGADVNAQDREGKTPADLAALLGHEDIAEVLQKAA,binding result,[12],binds
DARPin® protein comprising SEQ ID NO 226 (linked to a CD3-specific binding agent) (designed binder) GSDLGKKLLSAAQSGQDDEVRILLGAGADVNAKDKWGHTPLHLAAVKGHLEIAEVLLKAGADVNAKDEWGSTPLHLAASQGHLEIVEVLLKAGADVNAKDKKGATPLHLAALVGHLEIVEVLLKAVADVNAQDKSGKTPADLAARAGHQDIAEVLQKAA,Kd,[6],13.8 nM
SEQ ID NO 172 (designed binder) GSDLGKKLLQAARAGQLDEVRELLKAGADVNAKDEWGATPLHLAAYAGHLEIVEVLLKAGADVNAKDRWGLTPLHVAAVEGHLEIVEVLLKAGADVNAKDIEGETPLHIAAFTGHLEIVEVLLKAGADVNAQDKSGKTPADLAARAGHQDVAEVLQKAA,binding result,[12],binds
DARPin® protein #27 (designed binder) MRGSHHHHHHGSDLGFKLLQAAHYGQDDEVRILLAAGADVNAKDEYGRTPLHHAALKGHLEIVEVLLKAGADVNAKDEFGTTPLHYAAIFGHLEIVEVLLKAGADVNAQDSSGFTPADLAALVGHEDIAEVLQKAA,binding result,[2],no binding
same,binding result,[3],"no binding (tested: 3.7 nM to 300 nM, or 250 nM single trace)"
same,Kd,[4],0.494 nM
DARPin® protein comprising SEQ ID NO 225 (linked to a CD3-specific binding agent) (designed binder) GSDLGIKLLFAANFGQDDEVRILLAAGADVNAKDQSGRTPLHLAALWGHLEIVEVLLKAGADVNAKDVFGLTPLHIAATFGHLEIVEVLLKAGVDVNAQDYTGHTPADLAALIGHEDIAEVLQKAA,Kd,[6],9.23 nM
SEQ ID NO 160 (designed binder) GSDLGKKLLQAAQAGQDDEVRELLKAGADVNAKDEWGRTPLHVAAYWGHLEIVEVLLKAGADVNAKDSFGLTPLHLAAIEGHLEIVEVLLKAGADVNAQDQQGATPADLAALLGHEDIAEVLQKAA,binding result,[12],binds
DARPin® protein #26 (designed binder) MRGSHHHHHHGSDLGEKLLFAAFIGQDDEVRILLAAGADVNAKDEYGHTPLHAAAQHGHLEIVEVLLKAGADVNAKDQFGLTPLHIAAIFGHLEIVEVLLKAGADVNAQDHAGYTPADLAAWQGHEDIAEVLQKAA,binding result,[2],no binding
same,binding result,[3],"no binding (tested: 3.7 nM to 300 nM, or 250 nM single trace)"
same,Kd,[4],1.29 nM
SEQ ID NO 169 (designed binder) GSDLGKKLLQAARAGQLDEVRELLKAGADVNAKDHWGKTPLHLAAYEGHLEIVEVLLKAGADVNAKDLFGLTPLHLAAIEGHLEIVEVLLKAGADVNAKDSFGYTPLHVAAQVGHLEIVEVLLKAGADVNAQDKSGKTPADLAARAGHQDIAEVLQKAA,binding result,[12],binds
SEQ ID NO 167 (designed binder) GSDLGKKLLQAARAGQLDEVRELLKAGADVNAKDSSGWTPLHLAAYTGHLEIVEVLLKAGADVNAKDQWGLTPLHLAALEGHLEIVEVLLKAGADVNAKDHTGKTPLHLAAQQGHLEIVEVLLKAGADVNAQDKSGKTPADLAARAGHQDIAEVLQKAA,binding result,[12],binds
DARPin® protein #28 (designed binder) MRGSHHHHHHGSDLGQKLLKAAALGQDDEVRDLLKAGADVNAKDYQGQTPLHLAAWTGHLEIVEVLLKAGADVNAKDHFGYTPLHIAAHFGHLEIVEVLLKAGADVNAQDAAGQTPADLAAAEGHEDIAEVLQKAA,binding result,[2],no binding
same,binding result,[3],"no binding (tested: 3.7 nM to 300 nM, or 250 nM single trace)"
same,Kd,[4],2.57 nM
SEQ ID NO 157 (designed binder) GSDLGYKLLYAALFGQDDEVRILLAAGADVNAKDYFGKTPLHIAAYYGHLEIVEVLLKAGADVNAKDRYGITPLHLAALEGHLEIVEVLLKAGADVNAQDTDGITPADLAAWEGHEDIAEVLQKAA,binding result,[12],binds
